In patent US20250011363A1, “OPTIMIZED SHORTENED PEPTIDE THAT BINDS TO ACETYLCHOLINE RECEPTOR, AND USE THEREOF” (SKINMED CO., LTD., priority 2021, published 2025) one finds Binding affinity data, which are given here for 131 substances.

This experiment deals with acetylcholine receptor (Homo sapiens, UniProt P02708). Put plainly: SPR binding affinity (RU) of optimized 5mer/6mer/7mer peptides, Examples 6-7. The settings on record: SPR, peptides tested at 10 μM. Put shortly:
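600 peptides per series (5mer, 6mer-1, 6mer-2), made from high- or low-frequency amino acid combinations, are screened by SPR at 10 μM; binding is recorded in RU.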

Setting [1] is: 6mer-1 Top sequence (top combinations).

Sequence of acetylcholine receptor (P02708 21-457): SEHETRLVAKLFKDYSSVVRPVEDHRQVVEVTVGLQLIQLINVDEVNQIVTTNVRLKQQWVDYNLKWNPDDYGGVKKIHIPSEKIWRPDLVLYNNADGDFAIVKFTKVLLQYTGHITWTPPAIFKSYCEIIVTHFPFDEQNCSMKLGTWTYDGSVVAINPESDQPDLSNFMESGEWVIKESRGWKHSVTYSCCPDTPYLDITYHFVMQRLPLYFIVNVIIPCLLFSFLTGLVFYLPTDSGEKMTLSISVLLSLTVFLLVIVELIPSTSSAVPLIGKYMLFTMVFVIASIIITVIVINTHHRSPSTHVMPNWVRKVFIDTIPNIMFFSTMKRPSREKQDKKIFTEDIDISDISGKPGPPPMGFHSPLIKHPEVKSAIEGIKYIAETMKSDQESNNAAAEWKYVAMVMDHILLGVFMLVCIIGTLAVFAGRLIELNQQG

With 6mer-1-194 (RKWQRR), the Binding affinity under setting [1] turned out to be 144 Ru.
On the same count and under the same terms, with 6mer-1-195 (KRGISR) the figure was 122 Ru; with 6mer-1-196 (RKWRRK), 142 Ru.
The same measure, in the same setting: with 6mer-1-197 (RRSIRR) the figure was 139 Ru; with 6mer-1-198 (KRLFCR), 148 Ru; with 6mer-1-199 (KKQVQK), 151 Ru.
Same read-out and setting: under 6mer-1-200 (RKLYQR) stands 142 Ru; under 6mer-1-201 (RRRIQR), 151 Ru; under 6mer-1-202 (RRQLTK), 154 Ru.
For 6mer-1-203 (RRQITR), under “6mer-1 Top sequence”, the Binding affinity turned out to be 142 Ru.
Take 6mer-1-204 (KKRQRR): the Binding affinity (6mer-1 Top sequence) was 154 Ru.
For 6mer-1-205 (KRWRLR), the Binding affinity (6mer-1 Top sequence) stood at 133 Ru.
Same read-out and setting: under 6mer-1-206 (RRLQTR) stands 121 Ru; under 6mer-1-207 (KKSQQR), 151 Ru.
The same measure, in the same setting: under 6mer-1-208 (KRSIQR) stands 122 Ru; under 6mer-1-209 (RKGYTR), 121 Ru; under 6mer-1-211 (KKQLLR), 123 Ru.
The same measure, in the same setting: with 6mer-1-212 (RRRICR) the figure was 148 Ru.
Turning to 6mer-1-213 (KRRVRK), the Binding affinity (6mer-1 Top sequence) is 127 Ru.
In the case of 6mer-1-214 (RRSYCK), the Binding affinity (6mer-1 Top sequence) amounted to 139 Ru.
On the same count and under the same terms, with 6mer-1-215 (RKRYSR) the figure was 136 Ru; with 6mer-1-216 (RKSIQR), 148 Ru.
6mer-1-217 (KRVLQR): the Binding affinity (6mer-1 Top sequence) was determined as 135 Ru.
On the same count and under the same terms, with 6mer-1-218 (KKQVTR) the figure was 126 Ru; with 6mer-1-219 (RRLFCR), 121 Ru; with 6mer-1-220 (KRQRQK), 148 Ru.
For the substance 6mer-1-221 (KKWFQR), under “6mer-1 Top sequence”, the Binding affinity is on record as 148 Ru.
As for 6mer-1-222 (RRRVRR), the Binding affinity (6mer-1 Top sequence) worked out at 145 Ru.
On the same count and under the same terms, with 6mer-1-223 (KKRRRK) the figure was 133 Ru.
With 6mer-1-224 (KRGFLR), where the note is “6mer-1 Top sequence”, the Binding affinity was found to be 142 Ru.
On to 6mer-1-226 (RRWITR), for which the Binding affinity (6mer-1 Top sequence) was 128 Ru.
The same measure, in the same setting: under 6mer-1-227 (KRLVQK) stands 139 Ru; under 6mer-1-228 (KRVIYK), 139 Ru; under 6mer-1-229 (RRRLLR), 153 Ru.
Same read-out and setting: with 6mer-1-230 (RKGYCK) the figure was 128 Ru; with 6mer-1-231 (KRQRTK), 136 Ru; with 6mer-1-232 (RRRICK), 146 Ru.
The same measure, in the same setting: with 6mer-1-233 (KKWQSR) the figure was 128 Ru; with 6mer-1-234 (RRGISR), 142 Ru.
For 6mer-1-235 (KKRYCR), under “6mer-1 Top sequence”, the Binding affinity is 148 Ru.
Turning to 6mer-1-236 (RKLISR), the Binding affinity (6mer-1 Top sequence) worked out at 151 Ru.
Same read-out and setting: with 6mer-1-237 (RKSRYK) the figure was 137 Ru.
Still for that read-out and setting: with 6mer-1-238 (KKGQQK) the figure was 154 Ru; with 6mer-1-239 (RKVLCR), 136 Ru.
On the same count and under the same terms, with 6mer-1-240 (RRSRRR) the figure was 148 Ru.
With 6mer-1-241 (RRLYYK), the Binding affinity (6mer-1 Top sequence) is 148 Ru.
Same read-out and setting: with 6mer-1-242 (KRQYLK) the figure was 148 Ru; with 6mer-1-243 (KKWYLR), 136 Ru.
6mer-1-244 (RRRVQK): the Binding affinity (6mer-1 Top sequence) worked out at 144 Ru.
Still for that read-out and setting: under 6mer-1-245 (RRGFRR) stands 142 Ru.
The same measure, in the same setting: under 6mer-1-246 (RRLVSR) stands 122 Ru.
Consider 6mer-1-247 (KKVRQK), for which the Binding affinity (6mer-1 Top sequence) turned out to be 122 Ru.
The same measure, in the same setting: under 6mer-1-248 (RRLIYK) stands 151 Ru; under 6mer-1-249 (RKGVSR), 142 Ru.
Take 6mer-1-250 (RRVICR): the Binding affinity (6mer-1 Top sequence) was 142 Ru.
Regarding 6mer-1-251 (RKVQSK), the Binding affinity (6mer-1 Top sequence) is 133 Ru.
Same read-out and setting: with 6mer-1-252 (RRWIRR) the figure was 131 Ru; with 6mer-1-253 (RRVQLK), 145 Ru; with 6mer-1-254 (RKSLSK), 137 Ru.
In the case of 6mer-1-255 (KKGFQK), the Binding affinity (6mer-1 Top sequence) is 139 Ru.
For 6mer-1-256 (KRVRTK), the Binding affinity (6mer-1 Top sequence) is on record as 125 Ru.
Still for that read-out and setting: under 6mer-1-257 (RKWVTR) stands 124 Ru; under 6mer-1-258 (KKLQYK), 137 Ru; under 6mer-1-259 (KRRYRK), 141 Ru.
Still for that read-out and setting: with 6mer-1-260 (RKQRTK) the figure was 141 Ru; with 6mer-1-261 (KRWVTR), 121 Ru.
The same measure, in the same setting: under 6mer-1-262 (RKQLQR) stands 139 Ru; under 6mer-1-263 (RKSYTK), 146 Ru.
With 6mer-1-264 (RRQYQR), the Binding affinity (6mer-1 Top sequence) stood at 128 Ru.
Same read-out and setting: under 6mer-1-265 (RKSVCR) stands 145 Ru; under 6mer-1-266 (KKGRLK), 144 Ru.
Same read-out and setting: under 6mer-1-267 (KRRLLR) stands 139 Ru; under 6mer-1-268 (KRRQSK), 144 Ru; under 6mer-1-269 (RKRRQR), 142 Ru.
Same read-out and setting: with 6mer-1-270 (KRGLRR) the figure was 149 Ru; with 6mer-1-271 (RRQVSK), 122 Ru.
For the substance 6mer-1-272 (KKQVSR), the Binding affinity (6mer-1 Top sequence) was 139 Ru.
On the same count and under the same terms, under 6mer-1-273 (KKQVSK) stands 137 Ru.
Consider 6mer-1-275 (RKRVLK), for which, under “6mer-1 Top sequence”, the Binding affinity came to 123 Ru.
The same measure, in the same setting: under 6mer-1-276 (RRVICK) stands 128 Ru; under 6mer-1-277 (KKGLCR), 141 Ru.
The same measure, in the same setting: under 6mer-1-278 (KRQQTR) stands 142 Ru; under 6mer-1-279 (RRLRYR), 145 Ru; under 6mer-1-280 (RKLQCK), 149 Ru.
For the substance 6mer-1-281 (KRLLCR), under “6mer-1 Top sequence”, the Binding affinity turned out to be 154 Ru.
On the same count and under the same terms, with 6mer-1-282 (RRRRYR) the figure was 121 Ru.
Still for that read-out and setting: under 6mer-1-283 (KKWVQK) stands 133 Ru.
For the substance 6mer-1-284 (KRSRQK), the Binding affinity (6mer-1 Top sequence) stood at 145 Ru.
The same measure, in the same setting: under 6mer-1-285 (KRWVQR) stands 122 Ru.
On the same count and under the same terms, with 6mer-1-286 (RKLISK) the figure was 139 Ru.
On the same count and under the same terms, under 6mer-1-287 (RKWLTR) stands 136 Ru.
Turning to 6mer-1-288 (KKVQQR), the Binding affinity (6mer-1 Top sequence) is 148 Ru.
On the same count and under the same terms, with 6mer-1-289 (RKRYYR) the figure was 153 Ru; with 6mer-1-290 (RKQLTK), 146 Ru.
For 6mer-1-291 (KKQIRK), the Binding affinity (6mer-1 Top sequence) is 142 Ru.
The same measure, in the same setting: with 6mer-1-292 (RKWQTK) the figure was 122 Ru; with 6mer-1-293 (RKRVCK), 154 Ru.
Same read-out and setting: under 6mer-1-294 (KKLYRR) stands 123 Ru; under 6mer-1-295 (KRQRCR), 148 Ru.
As for 6mer-1-296 (RKSIRR), the Binding affinity (6mer-1 Top sequence) is listed as 121 Ru.
On the same count and under the same terms, under 6mer-1-297 (RRGFSK) stands 139 Ru; under 6mer-1-298 (KKLYCK), 147 Ru.
6mer-1-299 (KRWLSK): under “6mer-1 Top sequence”, the Binding affinity came to 139 Ru.
Same read-out and setting: with 6mer-1-300 (RRWQQK) the figure was 148 Ru.
On the same count and under the same terms, with 6mer-1-301 (RRSILR) the figure was 154 Ru; with 6mer-1-302 (RRGQSR), 151 Ru.
Still for that read-out and setting: with 6mer-1-303 (RKQYCK) the figure was 123 Ru.
Turning to 6mer-1-304 (RKLYSR), the Binding affinity (6mer-1 Top sequence) is reported as 121 Ru.
Turning to 6mer-1-305 (RKWISR), the Binding affinity (6mer-1 Top sequence) was 153 Ru.
Same read-out and setting: with 6mer-1-306 (KKLFYR) the figure was 135 Ru; with 6mer-1-307 (KRWYRR), 153 Ru.
In the case of 6mer-1-308 (KRRITR), under “6mer-1 Top sequence”, the Binding affinity turned out to be 135 Ru.
As for 6mer-1-309 (KKGICK), the Binding affinity (6mer-1 Top sequence) is on record as 153 Ru.
6mer-1-310 (RKRQLK): under “6mer-1 Top sequence”, the Binding affinity was 127 Ru.
On the same count and under the same terms, under 6mer-1-311 (RRGYQK) stands 127 Ru; under 6mer-1-312 (KKSRQK), 151 Ru; under 6mer-1-313 (RRWFCK), 148 Ru.
The same measure, in the same setting: under 6mer-1-314 (RRRILR) stands 141 Ru.
Turning to 6mer-1-315 (RKQQTK), for the setting “6mer-1 Top sequence”, the Binding affinity was determined as 128 Ru.
Consider 6mer-1-316 (RKQIRK), for which the Binding affinity (6mer-1 Top sequence) is 145 Ru.
Same read-out and setting: with 6mer-1-317 (KRSFRR) the figure was 148 Ru.
As to 6mer-1-318 (KKSRRK), under “6mer-1 Top sequence”, the Binding affinity is 145 Ru.
As for 6mer-1-319 (KRWVQK), for the setting “6mer-1 Top sequence”, the Binding affinity was 123 Ru.
On the same count and under the same terms, with 6mer-1-320 (KRVQYR) the figure was 121 Ru.
The same measure, in the same setting: under 6mer-1-321 (RKQVRR) stands 154 Ru; under 6mer-1-322 (KRGVQR), 146 Ru; under 6mer-1-323 (RRWLYR), 149 Ru.
In the case of 6mer-1-324 (RRLQRR), the Binding affinity (6mer-1 Top sequence) is given as 128 Ru.
Turning to 6mer-1-325 (RRQIQR), the Binding affinity (6mer-1 Top sequence) is given as 142 Ru.
Regarding 6mer-1-326 (RKWIYK), where the note is “6mer-1 Top sequence”, the Binding affinity was 136 Ru.
Regarding 6mer-1-327 (KRGITR), the Binding affinity (6mer-1 Top sequence) was 139 Ru.
